{"source": "paper PMC6488228", "about": "(Nature microbiology, 2018)", "molecules": {"B1": {"name": "EagT6 (from pRSFDuet-1::vgrG1::eagT6) (natural protein)", "chain": "MTLYRLHEADLEIPDAWQDQSINIFKLPASGPAREASFVISRDASQGDAPFADYVARQLENAEKQLPGFKLHKRWDINIHGHAAVLLDYQWQREGRDLMLRQVFIERRPAVLITTLTTTPADLPHHEPAWKQAMQTLVPRPTPS"}}, "key": {"[1]": {"biological_target": "VgrG1 (from pRSFDuet-1::vgrG1::eagT6) (Pseudomonas aeruginosa)", "assay": "cryo-EM structure"}, "[2]": {"biological_target": "Tse6 (full-length, C-terminal His8 tag) (Pseudomonas aeruginosa, UniProt Q9I739 1-430)", "sequence (Q9I739 whole entry)": "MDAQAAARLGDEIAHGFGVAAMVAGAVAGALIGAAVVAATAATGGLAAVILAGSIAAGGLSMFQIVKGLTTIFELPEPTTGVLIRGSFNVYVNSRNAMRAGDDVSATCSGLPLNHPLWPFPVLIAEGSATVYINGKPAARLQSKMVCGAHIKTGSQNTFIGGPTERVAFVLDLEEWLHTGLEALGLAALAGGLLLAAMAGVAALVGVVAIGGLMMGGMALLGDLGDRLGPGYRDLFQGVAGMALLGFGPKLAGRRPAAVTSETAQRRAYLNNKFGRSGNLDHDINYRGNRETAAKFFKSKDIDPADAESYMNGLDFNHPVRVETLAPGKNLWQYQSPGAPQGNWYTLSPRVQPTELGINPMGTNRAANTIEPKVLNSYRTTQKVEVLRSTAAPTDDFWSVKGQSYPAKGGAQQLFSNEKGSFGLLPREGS", "assay": "cryo-EM structure"}}}
{"molecule": "VgrG1 (from pRSFDuet-1::vgrG1::eagT6) (natural protein)", "values": [{"measurement": "stoichiometry N", "setting": "[1]", "value": 3}]}
{"molecule": "B1", "values": [{"measurement": "binding result", "setting": "[2]", "value": "binds"}]}
